In patent CN115710309A (INST PASTEUR SHANGHAI CAS, dated 2023):

B1: 单抗3A2 (antibody, V domains shown)
VH: QVTLKESGPGILQPSQTLSLTCSFSGFSLSTSGMGVSWIRQPSGKGLEWLAHIYWDDDKRYNPSLKSRLTISKDTSSSQVFLKITSVDTVDTATYYCARRGPLITTDGTFDVWGAGTTVTVSS
VL: DIVMTQSRKFMSTSVGDRVSITCKASQDVGTSVAWYQQKPGQSPKLLIYWASTRHTGVPDRFTGSGSGTDFTLTINSVQSEDLADYFCQQYSSYPYTFGGGTKLEMK
B2: 单抗2G3 (antibody)
heavy: QVQLQQPGAELVKPGASVKMSCKASGYTFTTYTIHWLRQTPGQGLEWIGAIYPGIGDTSYNQSFKGKATLTADKSSSTAYMQLSSLTSEDSAVYYCARDGNYAPFTYWGQGTLVTVSAAKTTPPSVYPLAPGSAAQTNSMVTLGCLVKGYFPEPVTVTWNSGSLSSGVHTFPAVLQSDLYTLSSSVTVPSSTWPSETVTCNVAHPASSTKVDKKIVPRDCGCKPCICTVPEVSSVFIFPPKPKDVLTITLTPKVTCVVVDISKDDPEVQFSWFVDDVEVHTAQTQPREEQFNSTFRSVSELPIMHQDWLNGKEFKCRVNSAAFPAPIEKTISKTKGRPKAPQVYTIPPPKEQMAKDKVSLTCMITDFFPEDITVEWQWNGQPAENYKNTQPIMDTDGSYFVYSKLNVQKSNWEAGNTFTCSVLHEGLHNHHTEKSLSHSPGK
light: DIVMSQSPSSLAVSVGEKVTMSCKSSQSLLYSNNQKNYLAWYQQKPGQSPKLLIYWTSTRESGVPDRFTGSGSGTDFTLTINSVKAEDLAVYYCQQYYRYPLTVGAGTKLELKRADAAPTVSIFPPSSEQLTSGGASVVCFLNNFYPKDINVKWKIDGSERQNGVLNSWTDQDSKDSTYSMSSTLTLTKDEYERHNSYTCEATHKTSTSPIVKSFNRNEC
B3: 单抗8D3 (antibody, V domains shown)
VH: EVQLQQSGPELVKPGASVKISCKTSGYTFTEYTMYWVKQSHGKSLEWIGGINPNIGDTSYNQNFKGKATLTVDRSSSTAYMELRSLTSEDSAVYYCARDGYPYYYALDHWGQGTSVTVSS
VL: DIVMTQSQKFMSTSVGDRVSVTCKASQNVGTNVAWYQQKPGQSPKALIYSTSYRYSGVPDRFTGSGSGTDFTLTISNVQSEDLAEYFCQQYNSYPYTFGGGTKLEIKR

Tests used:
Assay in all cases: cell-based or functional assay
SARS-CoV-2 S蛋白 (野生型假病毒) [1] = molecular target: SARS-CoV-2 S蛋白 (野生型假病毒) (SARS-CoV-2, UniProt P0DTC2 14-1273)
SARS-CoV-2 S蛋白 (野生型假病毒) [2] = molecular target: SARS-CoV-2 S蛋白 (野生型假病毒) (SARS-CoV-2, UniProt P0DTC2 14-1273); remark: listed apart in the source
[3] = molecular target: SARS-CoV-2活病毒nCoV-SH01株的S蛋白 (SARS-CoV-2, UniProt P0DTC2 14-1273)

Binder | 假病毒中和试验 半数抑制浓度(IC50) (SARS-CoV-2 S蛋白 (野生型假病毒) [1]) [µg/mL] | 假病毒中和试验 半数抑制浓度(IC50) (SARS-CoV-2 S蛋白 (野生型假病毒) [2]) [µg/mL] | 活病毒中和 IC50 [3] [µg/mL]
B1 | 0.049 | – | –
B2 | – | 0.007 | 0.032
B3 | – | 0.007 | 0.071
